From patent US11707511B2, “Vaccine compositions and methods of using the same” (The Board of Supervisors of Louisiana State University and …, priority 2017, dated 2023)

B1: 1D4H5: IgG1 mAb of hybridoma 1D4H5, specific for GPV-M1; VH SEQ ID NO: 64, VL SEQ ID NO: 66 (antibody, V domains shown)
VH: MYLGLNCVFIVFLLKGVQSEVKLEESGGGLVQPGGSMKLSCVASGFTFSNYWMNWVRQSPEKGLEWVAEIRLKSNNYATHYAESVKGRFTISSDDSKSSVYLQMNNLRAEDTGIYYCSTGNYWGQGTTLTVSS
VL: MDFQMQIISLLLISVTVIVSNGEIVLTQSPTTMAASPGEKITITCSASSTISSNYLHWYQQKPGFSPKLLIYRTSNLASGVPARFSGSGSGTSYSLTIGTMEAEDVATYYCQQGSTISRTFGSGTKLEIK
B2: 10E7E2: IgG1 mAb of hybridoma 10E7E2, specific for GPV-P3; VH SEQ ID NO: 72, VL SEQ ID NO: 74 (antibody, V domains shown)
VH: QVQLKQSGPGLVQPSQSLSITCTVSGFSLTSYGVHWVRQSPGKGLEWLGVIWSGGTTDYNAAFISRLSISKDNSKSQVFFKMNSLQANDTAIYYCARGGHRGFAYWGQGTLVTVSA
VL: DIVMTQSHKFMSTSVGDRVSITCKASQDVGTAVAWYQQKPGQSPKLLIYWASTRHTGVPDRFTGSGSGTDFTLTISNVQSEDLADYFCQQYSSYPLTFGAGTKLELK

Columns and labels:
C. tropicalis ATCC 28775 = experiment: Passive transfer of mAbs, neutropenic mouse model of disseminated candidiasis by C. tropicalis; assay type: in vivo; conditions: for Protection against C. tropicalis / Protection against C. tropicalis (grade word): Table 6, neutropenic BALB/c mice, mAb i.p. 4 h before 1×10^7 C. tropicalis i.v.; for Protection against Candida spp in mouse model: Against C. tropicalis / Protection against Candida spp in mouse model: Against C. tropicalis (grade word): Table 9
Excerpt: (§1) Induction of neutropenia. Although C. albicans remains the dominant disease-causing pathogen of this genus, rates of infections caused by non-albicans Candida (NAC) species are increasing. Among these Candida species, only C. albicans is pathogenic in the normal mouse model. To test vaccine and mAbs against non-albicans Candida spp, we have developed neutropenic murine models of disseminated infection by C. glabrata, C. tropicalis, and C. parapsilosis. Before challenge, BLAB/c mice were made neutropenic by intraperitoneal receipt of a 200 mg/kg dose of cyclophosphamide (CY; Sigma-Aldrich) at day −3. The i.p. injection (150 mg/kg) is repeated every 10 days after infection (i.e., at days 10, 20, 30, and 40 post-infection) in order to maintain low neutrophil counts for the entire experimental procedure. […] To evaluate leukocytopenia in these mice, blood samples were collected from tail veins 3 days after each CY or saline injection (n=10 in each group). Total leukocyte and differential cell counts were determined on a hemocytometer and by Wright-Giemsa staining. Body weights of the mice were also measured and compared for 14 days after the first CY or saline injection (n=10 in each group).
(§2) Fungal challenge dose and assessment ofprotection. Although C. albicans remains the dominant disease-causing pathogen of this genus, rates of infections caused by non-albicans Candida (NAC) species are increasing (18). Among these Candida species, only C. albicans is pathogenic in the normal mouse model (19,20). We have developed neutropenic murine models of disseminated infection by C. glabrata, C. tropicalis, and C. parapsilosis. […] In details, mice of different experimental groups (five mice per group) were intravenously infected with 5×10^6 viable C. parapsilosis ATCC MYA-4646 (A), 1×108 C. glabrata ATCC 2001 cells (B) and 1×107 C. tropicalis ATCC 28775 cells (C) in 0.1 ml DPBS. As controls, immunocompetent mice were challenged with the same dose of each Candida strain tested.
(§3) Passive transfer of MAbs by intraperitoneal (i.p.) route. The preventive effect of peptide-specific mAbs listed in Table 3 and Table 4 in naïve mice was examined by passive transfer experiments. Each mAb was appropriately diluted in DPBS to give a 40,000-100,000 ELISA titer against each corresponding specific peptide coated on the plate. For testing, mice received 0.5 ml of each mAb or 1 ml of two mAbs in combination (0.5 ml of each) intraperitoneally. Table 6 and Table 7 have listed all the peptide-specific mAb combinations that have been tested, as well as the protective efficacy of each mAb cocktail as compared to single mAb treatment. The negative control materials tested in mice were single mAb or DPBS. Control mice received 0.5 ml of the DPBS diluents or single mAb treatment. For each condition, 6- to 8-week-old female BALB/c mice (NCI) were given 0.5 ml of test mAb, or 1 ml two mAb cocktails or control materials intraperitoneally, followed 4 h later by 0.1 ml intravenously of defined lethal dose of yeast cells per milliliter of DPBS. Mice were divided into groups with five mice each and three independent experiments were carried out. In some experiments, mice were given the same dose of mAbs or control materials on every other day post-challenge for two weeks, as compared to the protective efficacy of mAb in combinations. All mice were sacrificed on day 50. For animal groups that were challenged non-albicans candida species, determined optimal challenge doses were applied for each candida strain.
(§4) The preventive effect of each universal peptide-specific mAb was examined by passive transfer experiments. Each mAb was appropriately diluted in DPBS (0.2 μg/μl) to give a 100,000 ELISA titer against each universal peptide coated on the plate. For testing, 5 mice of each tested group received 0.5 ml of each mAb intraperitoneally. The negative control materials tested in mice were mAbs absorbed with C. albicans yeast cells (3153A) and DPBS. […]

C. auris = experiment: Passive transfer of mAbs in cyclophosphamide-immunosuppressed B6.129X1Elane mice, disseminated infection by C. auris; assay type: in vivo, Candida auris; conditions: 2×108 C. auris i.v.
Experimental: An immunocompromised murine model of disseminated infection by C. auris was developed. To induce immunosuppression, Jackson B6.129X1Elane mice received a 200 mg/kg dose of cyclophosphamide (CY) by i.p. on day −3. Prolonged immunosuppression was maintained for 30 days by giving each animal a 200 mg/kg dose of CY by i.p. every 10 days after infection. On day 0, mice of different experimental groups were intravenously infected with 2×10^8 viable C. auris yeast cells.
The preventive effect of peptide-specific mAbs, for example 7H6A2 and 1D4H5, and combinations thereof, for example 7H6A2+1D4H5, was examined by passive transfer experiments. Each mAb was appropriately diluted in DPBS to give a 40,000-100,000 ELISA titer against each corresponding specific peptide coated on the plate. For testing, mice received 0.5 ml of each mAb or 1 ml of two mAbs in combination (0.5 ml of each) intraperitoneally. Control mice received 0.5 ml of the DPBS diluents.
Protective mAbs protect immunocompromised mice against disseminated infection by Candida auris: The possibility of using passive mAb immunotherapy in immunocompromised mice against disseminated candidiasis by C. auris. The protective effect of mAb 7H6A2, 1D4H5 or these two mAbs in combination against the disease in immunocompromised mice was examined by passive transfer experiments (FIG. 14). Mice received either mAb 7H6A2 or 1D4H5 or the two mAbs in combination had reduced CFUs in kidneys (FIG. 14A) and in brains (FIG. 14B) as compared with control mice.

C. glabrata ATCC 2001 = experiment: Passive transfer of mAbs, neutropenic mouse model of disseminated candidiasis by C. glabrata; assay type: in vivo; conditions: for Protection against C. glabrata / Protection against C. glabrata (grade word): Table 6, neutropenic BALB/c mice, mAb i.p. 4 h before 1×10^8 C. glabrata i.v.; for Protection against Candida spp in mouse model: Against C. glabrata / Protection against Candida spp in mouse model: Against C. glabrata (grade word): Table 9
Excerpt: as §1, §2, §3, §4

| Molecule | Protection against C. tropicalis (C. tropicalis ATCC 28775) | Protection against C. tropicalis (grade word) (C. tropicalis ATCC 28775) | Protection against Candida spp in mouse model: Against C. tropicalis (C. tropicalis ATCC 28775) | Protection against Candida spp in mouse model: Against C. tropicalis (grade word) (C. tropicalis ATCC 28775) | CFUs in kidneys as compared with control mice (C. auris; FIG. 14A) | CFUs in brains as compared with control mice (C. auris; FIG. 14B) | Protection against C. glabrata (C. glabrata ATCC 2001) | Protection against C. glabrata (grade word) (C. glabrata ATCC 2001) | Protection against Candida spp in mouse model: Against C. glabrata (C. glabrata ATCC 2001) | Protection against Candida spp in mouse model: Against C. glabrata (grade word) (C. glabrata ATCC 2001) |
| --- | --- | --- | --- | --- | --- | --- | --- | --- | --- | --- |
| B1 | (60-80%) | High | (60-80%) | High | reduced CFUs | reduced CFUs | (70-90%) | High | (70-90%) | High |
| B2 | (60-70%) | High | (60-70%) | High | – | – | (60-70%) | High | (60-70%) | High |
